Test in all cases: SPR; Biacore T100, 37°C, HBS-EP; biotinylated ligand captured with the Biotin CAPture Kit, reference biotinylated rat Cd4d3+4; purified his-tagged analyte injected at 20 μl/min, equilibrium fit Req = CRmax/(C+KD); lower concentrations did not reach equilibrium, KD likely slightly overestimated
For assay [1], the target named is P. vivax P41 (PVX_000995, 6-cysteine protein), entire ectodomain, AVEXIS bait/prey form (P. vivax) (UniProt A5KAP6).
In assay [2] the target is P. falciparum P41, AVEXIS bait/prey form (P. falciparum).
Assay [3] deals with P. vivax P12 (PVX_113775, 6-cysteine protein), entire ectodomain, AVEXIS bait/prey form (P. vivax) (UniProt A5K1W7).

For the substance “P. vivax P12 (PVX_113775), entire ectodomain, 6-His tagged, purified (from UniProt A5K1W7 24-339) (domain or fragment)”, the Kd (as a rule, the constant that tells how readily two partners part at equilibrium) in assay [1] was 120 nM; in assay [2], 31 nM. Take “P. vivax P41 (PVX_000995), entire ectodomain, 6-His tagged, purified (from UniProt A5KAP6 22-384) (domain or fragment)”: the Kd in assay [3] is 77 nM.

(Values after article PMC4689532.)
